Article doi:10.1101/2020.05.22.111005 (bioRxiv, 2020)

B1: COV2-2165 (human mAb) (antibody, V domains shown)
VH: EVQLVESGGGLVQPGGSLRLSCAASGLTVRSNYMTWVRQTPGKGLEWVSVIYSGGSTFYADSVKGRFTISRDNSKNTVYLQMNSLRAEDTAVYYCARDLVTYGLDVWGQGTTVTVSS
VL: DIQLTQSPSFLSASVGDRVTITCRASQGISNYLAWYQQKPGTAPNLLIYAASTLQSGVPSRFSGSGSGTEFTLTISSLQPEDFATYYCQLLNSHPLTFGQGTRLEIK
B2: Fab COV2-2165 (Fab, V domains shown)
VH: EVQLVESGGGLVQPGGSLRLSCAASGLTVRSNYMTWVRQTPGKGLEWVSVIYSGGSTFYADSVKGRFTISRDNSKNTVYLQMNSLRAEDTAVYYCARDLVTYGLDVWGQGTTVTVSS
VL: DIQLTQSPSFLSASVGDRVTITCRASQGISNYLAWYQQKPGTAPNLLIYAASTLQSGVPSRFSGSGSGTEFTLTISSLQPEDFATYYCQLLNSHPLTFGQGTRLEIK
B3: COV2-2196 (human mAb) (antibody, V domains shown)
VH: QMQLVQSGPEVKKPGTSVKVSCKASGFTFMSSAVQWVRQARGQRLEWIGWIVIGSGNTNYAQKFQERVTITRDMSTSTAYMELSSLRSEDTAVYYCAAPYCSSISCNDGFDIWGQGTMVTVSS
VL: not shown
B4: Fab COV2-2196 (Fab, V domains shown)
VH: QMQLVQSGPEVKKPGTSVKVSCKASGFTFMSSAVQWVRQARGQRLEWIGWIVIGSGNTNYAQKFQERVTITRDMSTSTAYMELSSLRSEDTAVYYCAAPYCSSISCNDGFDIWGQGTMVTVSS
VL: not shown

Columns and labels:
[1] = target: SARS-CoV-2 S receptor-binding domain (SRBD), monomeric, wild type (SARS-CoV-2, Wuhan-Hu-1 reference spike, UniProt P0DTC2); experiment: BLI
[2] = target: T1, prefusion-stabilized trimeric SARS-CoV-2 S protein ectodomain (S2Pecto) (SARS-CoV-2, Wuhan-Hu-1 reference spike, UniProt P0DTC2, stabilised); experiment: negative-stain electron microscopy
[3] = target: T1, prefusion-stabilized trimeric …; experiment: ELISA

| Binder | binding result [1] | binding result [2] | binding result [3] |
| --- | --- | --- | --- |
| B1 | binds |  |  |
| B2 |  | binds |  |
| B3 | binds |  | binds |
| B4 |  | binds |  |
